In US20190309044A1, “POLYPEPTIDES AND USES THEREOF AS A DRUG FOR TREATMENT OF AUTOIMMUNE DISORDERS” (Compugen Ltd., priority 2017, published 2019):

Tests used:
Format in all cases: in vivo, mouse
male DBA-1 mice = experiment: Established collagen induced arthritis (CIA), macroscopic and histological scores
Procedure: Bovine type II collagen (CII) (RUNMC in house production, batch 03-04-08) at a concentration of 2 mg/ml in acetic acid 0.05M was emulsified in equal volumes of Freund's complete adjuvant (2 mg/ml of Mycobacterium tuberculosis strain H37Ra; Difco, Detroit, Mich.).
On day 0, 10-12 week old male DBA-1 mice (Janvier Elevage, France) (n=95) were immunized i.d. at the base of the tail with 100 μg of bovine CII. On day 21, mice received an intraperitoneal booster injection of 50 μg of CII dissolved in phosphate buffered saline (PBS), and the onset of arthritis occurred a few days after this booster.
Joint inflammation in each paw was scored visually, using a scale of 0-2 per paw with a maximal score of 8 per animal: 0=non inflamed, 1=mild inflammation, 1.5=marked inflammation, and 2=severe inflammation. Scoring was performed three times a week.
Treatment was started in established CIA early after onset of disease (i.e. therapeutic regimen), when the macroscopic scores per animal were between 0.25 and 1.25 (on a scale of 0-8). […] Histology was scored for inflammation and destruction on an arbitrary scale of 0-3, for five different parameters: […]
Joints were fixed for at least 4 days in 4% formaldehyde, decalcified in 5% formic acid, and subsequently dehydrated and embedded in paraffin. […] The severity of inflammation in the joints was scored on a scale of 0-3 (0=no cells, 1=mild cellularity, 2=moderate cellularity, and 3=maximal cellularity). […] Depletion of PG was determined using an arbitrary scale of 0-3, ranging from normal, fully stained cartilage to destained cartilage, fully depleted of PGs. Chondrocyte death was scored on a scale of 0-3 ranging from no loss of chondrocyte nuclei to complete empty cartilage surface. The degree of cartilage surface erosion was scored on a scale of 0-3, ranging from no damage to complete loss of articular cartilage. […] Histopathological changes in the joint were scored on three semiserial sections of the joint spaced 70 μm apart. […]

SJL/J mice = experiment: T cell and Treg counts in spleen and CNS by FACS, R-EAE with IL-10 or TGFb blockade; details: day 44
From the text: On day 44 post disease induction, the rest of the mice were sacrificed and spleens and CNS were taken for cell counts and cell population analysis as described below.
4. Experimental stains (CD45, CD3, CD4, CD25, FoxP3, Nrp-1, and Helios)
9. Gating scheme for flow: Singlets (FSC-A vs. FSC-H)->Cells (SSC-A vs. FSC-A)->Live (VID stain negative cells)->CD45hi->CD3/CD4+->CD25/FoxP3+->Helios/Nrp-1

[1] = test system: female C57BL/6 recipient mice; experiment: HY bone marrow transplantation model, chimerism and T cell subtypes by FACS
From the text: A transplantation model utilizing male bone marrow (BM) cells from C57BL/6 mice transplanted into female mice of the same starin was used to study whether C1ORF32 ECD-Fc induces immune tolerance. In this model BM cells of the male mouse are rejected by the female recipients due to mismatch in the minor histocompatibility antigen encoded by the Y chromosome (Hya). To allow identification of the male cells in the female mice blood, male mice expressing CD45.1 isotype were selected while the female mice carry CD45.2 isotype. This model provides a tool for testing the effect of potential drugs on induction of tolerance towards the grafted cells.
In this model, C1ORF32 ECD-Fc (SEQ ID NO:42) treatment started one week before bone marrow transplantation and continued for five weeks. Female recipient mice were followed for percentage of CD45.1+ and CD45.2+ cells present within the blood.
Female C57BL/6 recipient mice (CD45.2+) were sub-lethally irradiated with 200 rads/cGy 24 hours before transplantation of either female C57Bl/6 (CD45.1+) or male C57Bl/6 (CD45.1+) 5×10^6 bone marrow cells. Recipient mice were allocated into treatment groups as detailed below (n=6 per group). Treatments were given at 300 ug/dose i.p, 3×/wk starting one week prior to transplantation and continued for 4 weeks following transplantation, giving a total of 15 treatments during this 5 weeks period.
1. Female CD45.1 into female CD45.2 2. Male CD45.1 into female CD45.2+ anti-CD40L (300 ug/dose) (Clone MR-1; BioXCell, Cat#BE0017-1) 3. Male CD45.1 into female CD45.2+C1ORF ECD-Fc (SEQ ID NO:42) (300 ug/dose)2 4. Male CD45.1 into female CD45.2+ Control Ig (mouse IgG2a) (300 ug/dose)
Beginning at 2 weeks following bone marrow transplantation, blood samples from the tail were collected from each mouse once a week for 4 weeks. Approximately 2-3 drops of blood were collected per mouse into 200 ul of PBS+EDTA (50 mM), samples were spun down, and RBCs lysed with ammonium chloride. The cells were washed 3× with PBS, stained with the viability dye Aqua Dead Cell Stain (Invitrogen; Cat#L34957), blocked with Fc Receptor block (anti-mouse CD16/32; eBioscience; Cat#14-0161-86), and stained with anti-mouse CD45.1 APC-Cy7 (eBiosciences; Cat#47-0453-80) and anti-mouse CD45.2 FITC (eBioscience; Cat#11-0454-82). The analysis for chimerism was determined by flow cytometric analysis (on total live cells) for the percentage of CD45.1+ versus CD45.2+ cells present in the blood of female recipient mice.
During weeks 6, 7, and 8 the blood samples were also stained to determine the percentage of CD4+ Teff cells and CD4+ Treg cells present within the blood using the cellular markers CD44, CD25, and FoxP3. Details of the Abs used in the flow panels for weeks 6, 7, and 8 are listed below.

B1: C1ORF32 ECD-Fc (SEQ ID NO:42): human-mouse fusion protein: human C1ORF32 ECD fused to mouse immunoglobulin Fc (SEQ ID NO:42) (protein)
chain: LQVTVPDKKKVAMLFQPTVLRCHFSTSSHQPAVVQWKFKSYCQDRMGESLGMSSTRAQSLSKRNLEWDPYLDCLDSRRTVRVVASKQGSTVTLGDFYRGREITIVHDADLQIGKLMWGDSGLYYCIITTPDDLEGKNEDSVELLVLGRTGLLADLLPSFAVEIMGSENLYFQGSGEPRGPTIKPCPPCKCPAPNLLGGPSVFIFPPKIKDVLMISLSPIVTCVVVDVSEDDPDVQISWFVNNVEVHTAQTQTHREDYNSTLRVVSALPIQHQDWMSGKEFKCKVNNKDLPAPIERTISKPKGSVRAPQVYVLPPPEEEMTKKQVTLTCMVTDFMPEDIYVEWTNNGKTELNYKNTEPVLDSDGSYFMYSKLRVEKKNWVERNSYSCSVVHEGLHNHHTTKSFSRTPGK
modifications: Fusion protein human C1ORF32-ECD fused to mouse IgG2a Fc
With B1 the “clinical (macroscopic) scores of arthritis” value (male DBA-1 mice; 10 mg/kg i.p. 3x/wk 2 wks, p<0.001 vs mIgG2a) was “significantly reduced”, the “overall outcome in three CIA studies” value (male DBA-1 mice; mouse, in vivo) was “excellent results in two studies and weak results in one study” and the “leukocytes and T cell counts in the CNS (CD45+, CD4+, CD25+/FoxP3+)” value (SJL/J mice) was “pronounced decrease”. For the same molecule, the “male CD45.1+ cells in the blood of recipient females” value ([1]; by week 4 post transplantation, maintained until week 8, 300 ug/dose i.p. 3x/wk 5 weeks) was “highly significant number of male CD45.1+ cells were present”, the “effector/memory CD4+ T cells (CD45.1+/CD4+/CD44hi) in blood” value ([1]; week 6, vs Control Ig) was “decrease” and the “CD45.2+ and CD4+ T cells within the spleen” value ([1]; week 8, vs Control Ig) was “lower percentage and number”. The “donor Tregs (FoxP3+CD25+) in blood” value ([1]; week 8, vs Control Ig) was “significant increase”, the “donor activated CD4+ T cells (FoxP3-CD25+) in blood” value ([1]; week 8, vs Control Ig) was “decrease” and the “donor effector/memory CD4+ T cells (CD44hi) in blood” value ([1]; week 8, vs Control Ig) was “significant increase”. The “recipients' CD45.2+ T cell populations in blood” value ([1]; week 8, vs Control Ig) was “No differences”.
